According to patent US20200347130A1 (JIANGSU HENGRUI MEDICINE, published 2020):

Columns and labels:
[1] = target: T1, Full-length human CD96 on CHO-S cells (human, UniProt P40200 22-585); experiment: cell ELISA on fixed CHO-S cells overexpressing human CD96, HRP anti-human secondary antibody, OD450
T1 construct: also called CD96-CHOs; hCD96-CHOs
T1 sequence: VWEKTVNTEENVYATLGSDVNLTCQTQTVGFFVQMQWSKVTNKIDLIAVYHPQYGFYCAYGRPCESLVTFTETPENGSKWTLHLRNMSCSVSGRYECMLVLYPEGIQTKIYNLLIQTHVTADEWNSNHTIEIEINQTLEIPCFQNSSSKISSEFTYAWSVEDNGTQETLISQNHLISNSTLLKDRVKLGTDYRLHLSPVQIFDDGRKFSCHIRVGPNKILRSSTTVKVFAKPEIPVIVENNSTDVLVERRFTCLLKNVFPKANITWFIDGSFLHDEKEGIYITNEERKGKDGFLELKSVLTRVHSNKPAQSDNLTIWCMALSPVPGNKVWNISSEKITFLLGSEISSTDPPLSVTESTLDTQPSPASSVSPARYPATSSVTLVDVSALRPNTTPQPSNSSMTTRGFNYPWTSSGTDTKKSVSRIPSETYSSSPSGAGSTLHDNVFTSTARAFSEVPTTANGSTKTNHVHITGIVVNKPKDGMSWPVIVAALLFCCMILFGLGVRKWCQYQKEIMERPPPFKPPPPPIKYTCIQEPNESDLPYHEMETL
Protocol: The binding capacity of the anti-CD96 antibody was tested by binding experiments of the antibody to human CD96 protein overexpressing CHO-S cells. The full-length CD96 plasmid was transfected into CHO-S cells by electrotransfection, and cells were then screened for two weeks under pressure for the detection of the expression of CD96. After the over-expressing cells were fixed at the bottom of the 96-well plate, the density of the signal after adding the antibody was used to judge the binding activity of the antibody to CD96 overexpressing CHO-S cells. The specific experimental method is as follows:
The cells were seeded at a density of 9×10⁴/100 μL/well in a 96-well plate and cultured overnight. After aspirating the supernatant, the plate was washed once with PBS, subsequently, 100 μl/well immunostaining fixation solution (Biyuntian, P0098) was added and fixed for one hour at room temperature, and the plate was washed three times with PBS. Once the liquid was discarded, 250 μl/well of 5% skim milk (BD, 232100) blocking solution diluted with PBS was added, and the plate was blocked in an incubator at 37° C. for 2.5 hours. […] The absorption value was read at 450 nm with a NOVOStar microplate reader, and the EC50 value of the CD96 antibodies to CD96 overexpressing CHO-S cells was calculated (see FIG. 1 and Table 15).

[2] = target: T2, CD96 epitope peptide #16 (235-254) (human); experiment: peptide ELISA, peptide coated
T2 peptide: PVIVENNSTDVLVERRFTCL
Protocol: (§1) The epitopes recognized by anti-CD96 antibody were detected by the assay of binding the antibody to different polypeptide fragments of CD96 protein. The fragments of different polypeptides of the CD96 antigen were coated on the microtiter plate. The signal density after the antibody was added was used to judge the binding activity of the antibody and the polypeptide. The specific experimental method is as follows:
(§2) The polypeptides were diluted to a concentration of 20 μg/ml with PBS buffer (Shanghai Yuanpei Biotechnology Co., Ltd. Cat No. B320), pH 7.4, added to a 96-well microtiter plate (Corning, Cat No. CLS3590-100EA) at a volume of 50 μl/well, and coated at 4° C. overnight. After discarding the liquid, 250 μl/well of 5% skim milk (BD skim milk, Cat No. 232100) blocking solution diluted with PBS was added, and the plate was incubated in an incubator at 37° C. for 3 hours. After blocking, the blocking solution was discarded, and the plate was washed 5 times with PBST buffer (pH 7.4 PBS containing 0.05% tween-20). 50 μl/well of different concentrations of the antibodies to be tested (hybridoma purification antibody or humanized antibody) diluted with sample dilution was added, and the plate was incubated in an incubator at 37° C. for 2 hours. […] After washing the plate 5 times with PBST, 50 μl/well of TMB chromogenic substrate (KPL, Cat No. 52-00-03) was added, the plate was incubated at room temperature for 5-15 min, followed by adding 50 μl/well of 1M H₂SO₄ to stop the reaction. The absorption value was read at 450 nm with a microplate reader (Thermo Scientific MuLtiskan MK3), and the epitopes that CD96 antibody can recognize were analyzed.

[3] = target: T3, CD96 epitope peptide #10 (149-170) (human); experiment: peptide ELISA, peptide coated
T3 peptide: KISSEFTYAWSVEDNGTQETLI
Protocol: as §1, §2

[4] = target: T4, CD96 epitope peptide #15 (220-239) (human); experiment: peptide ELISA, peptide coated
T4 peptide: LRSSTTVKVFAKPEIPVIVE
Protocol: as §1, §2

[5] = target: T5, CD96 epitope peptide #8 (122-141) (human); experiment: peptide ELISA, peptide coated
T5 peptide: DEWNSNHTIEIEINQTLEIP
Protocol: as §1, §2

[6] = target: T6, CD96 epitope peptide #21 (310-329) (human); experiment: peptide ELISA, peptide coated
T6 peptide: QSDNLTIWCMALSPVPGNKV
Protocol: as §1, §2

[7] = target: T7, CD96 epitope peptide #12 (181-200) (human); experiment: peptide ELISA, peptide coated
T7 peptide: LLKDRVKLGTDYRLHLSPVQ
Protocol: as §1, §2

[8] = target: T8, CD96 epitope peptide #6 (92-111) (human); experiment: peptide ELISA, peptide coated
T8 peptide: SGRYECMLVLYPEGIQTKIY
Protocol: as §1, §2

[9] = target: T9, CD96 epitope peptide #22 (325-344) (human); experiment: peptide ELISA, peptide coated
T9 peptide: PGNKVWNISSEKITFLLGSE
Protocol: as §1, §2

[10] = target: T10, CD96 epitope peptide #7 (107-126) (human); experiment: peptide ELISA, peptide coated
T10 peptide: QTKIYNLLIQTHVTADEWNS
Protocol: as §1, §2

[11] = target: T11, CD96 epitope peptide #2 (32-51) (human); experiment: peptide ELISA, peptide coated
T11 peptide: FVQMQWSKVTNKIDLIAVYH
Protocol: as §1, §2

[12] = target: T12, CD96 epitope peptide #20 (295-314) (human); experiment: peptide ELISA, peptide coated
T12 peptide: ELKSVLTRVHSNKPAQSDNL
Protocol: as §1, §2

Binder | EC50 (read off the curve) [1] [nM] | binding result [2] | binding result [3] | binding result [4] | binding result [5] | binding result [6] | binding result [7] | binding result [8] | binding result [9] | binding result [10] | binding result [11] | binding result [12]
h1719-010 (antibody, V domains shown, Only variable regions are tied to this name) VH: EVTLKESGPVLVKPTETLTLTCTVSGFSLSSYGVSWVRQPPGKGLEWLGVIWGDGNTNYHSVLISRLTISKDTSKSQVVLTLTNMDPVDTATYYCAKQNYYGSRYGYPIDYWGQGTTVTVSS VL: DIQMTQSPSSVSASVGDRVTITCKATQDVGTAVAWYQQKPGKAPKLLIYWASTRHTGVPSRFSGSGSGTDFTLTISSLQPEDFATYYCQQYGSSVLTFGGGTKVEIK | ~0.05 |  |  |  |  |  |  |  |  |  |  | 
ch1718 (antibody, human IgG4 S228P, kappa, V domains shown, also called chimeric antibody corresponding to m1718) VH: EFQLQQSGPELVKPGASVKISCKASAYSITDYNMNWVKQSNGKSLEWIGVINPSYGITDYNQNFKDKATLTVDQSSSTAYMQLNSLTSEDSAVYYCAIQLRLPGYFDVWGTGTTVIVSS VL: DIKMTQSPSSMYASLGERVTITCKASQDINNYLNWFQQKPGKSPKTLIYRANRLVDGVPSRFSGSGSGQDYSLTISSLEYEDMGIYYCLKYDEFPYTFGGGTKVEIKR |  | binds | binds | binds | binds | binds | binds | binds | binds | binds | binds | binds
